In US20130273567A1, “Screening Method for Candidate Agonist Compounds for Adiponectin Receptor I” (priority 2010, published 2013):

Legend:
[1] = Plasma adiponectin level after intravenous injection of adiponectin; assay type: in vivo; settings: 30 μg per 10 g body weight intravenously through inferior vena cava catheter, mice
From the text: (§1) Mouse full-length adiponectin was generated as described in the following documents (Nature Med. 8, 1288-1295 (2002); Nature Med. 7, 941-946 (2001); Nature 423, 762-769 (2003)).

PGC-1α (Ppargc1a) = test: Ppargc1a mRNA levels in skeletal muscle treated with adiponectin; assay type: in vivo, mice; settings: control littermates; adiponectin 30 μg per 10 g body weight, 10 min
Procedure: as §1
Real-time PCR was carried out according to the method described in the following documents (Nature Med. 13, 332-339 2007); Nature 423, 762-769 (2003); J. Biol. Chem. 281, 8748-8755 (2006)). Total RNA was prepared from cells or tissues by using Trizol (Invitrogen) according to the manufacturer's instructions. Quantification of mRNA was conducted using a real-time PCR method (Nature 423, 762-769 (2003)) with slight modifications. The procedures used for immunoblotting are described in the following documents (Nature Med. 7, 941-946 (2001); J. Biol. Chem. 281, 26602-26614 (2006); J. Biol. Chem. 281, 8748-8755 (2006)). The livers or muscles were freeze-clamped in liquid nitrogen in situ (Nature Med. 7, 941-946 (2001); J. Biol. Chem. 281, 26602-26614 (2006); J. Biol. Chem. 281, 8748-8755 (2006)).

PGC-1α = PGC-1α acetylation (acetyl-lysine on immunoprecipitates) in C2C12 myocytes; assay type: cell-based, mouse; settings: treatment for 2 hr
Procedure: The mouse C2C12 myoblasts were grown in 90% Dulbecco's modified high glucose Eagle's medium containing 10% (v/v) fetal bovine serum. When the cells reached 80% confluent, the myoblasts were induced to differentiate into myocytes by replacing the medium with a low serum differentiation medium (98% Dulbecco's modified high glucose Eagle's medium, 2.5% (v/v) horse serum). The medium was changed daily. The C2C12 cells were transfected by using Pofectamine 2000 (Invitrogen) and following the manufacturer's instructions.

CaMKI = CaMKI phosphorylation in skeletal muscle in vivo; design: species or system mice; settings: adiponectin 30 μg per 10 g body weight, 5 min; via AdipoR1
From the text: as §1

AdipoR1 [2] = target: T1, AdipoR1 (Mus musculus, UniProt Q91VH1); test: Calcium imaging in C2C12 myocytes (fura-2); assay type: cell-based; design: endogenous in cells; host or cells: mouse C2C12 myocytes (differentiated from myoblasts)
T1 sequence (Q91VH1 1-375): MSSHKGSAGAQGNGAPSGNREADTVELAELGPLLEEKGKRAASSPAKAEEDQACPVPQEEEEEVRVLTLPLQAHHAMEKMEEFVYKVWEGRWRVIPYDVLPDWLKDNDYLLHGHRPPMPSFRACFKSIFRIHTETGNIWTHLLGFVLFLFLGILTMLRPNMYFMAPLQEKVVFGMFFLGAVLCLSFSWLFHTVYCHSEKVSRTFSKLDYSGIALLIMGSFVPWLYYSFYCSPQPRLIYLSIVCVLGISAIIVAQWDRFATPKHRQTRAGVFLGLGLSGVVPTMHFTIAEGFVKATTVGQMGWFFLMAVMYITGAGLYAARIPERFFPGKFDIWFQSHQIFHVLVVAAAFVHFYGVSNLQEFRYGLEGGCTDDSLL
Procedure: C212 myocytes cultured on glass base dishes (IWAKI) were treated with 2.5 μM fura-2/AM for 30 min. Fluorescence was measured with an Aquacosmos Calcium Imaging system (Hamamatsu Photonics). Ligands were delivered through the superfusing Ringer's solution (140 mM NaCl, 5.6 mM KCl, 5 mM HEPES, 2.0 mM sodium pyruvate, 1.25 mM KH2PO4, 2.0 mM CaCl2, 2.0 mM MgCl2, 9.4 mM D-glucose (pH 7.4)). For the calcium chelating experiment, EGTA solution (140 mM NaCl, 5.6 mM KCl, 5 mM HEPES, 2.0 mM sodium pyruvate, 1.25 mM KH2PO4, 2.0 mM MgCl2, 5.0 mM EGTA-2Na, 9.4 mM D-glucose (pH 7.4) was used for the bath solution. Fura-2 fluorescence ratios were calibrated to calcium ion signals.

AdipoR1 [3] = target: T1, AdipoR1; test: Patch clamp test, whole-cell current of C2C12 myocytes; assay type: cell-based; design: endogenous in cells; host or cells: mouse C2C12 myocytes (differentiated from myoblasts); settings: holding potential -60 mV, adiponectin 30 μg/ml 30 sec
Procedure: Whole-cell currents were amplified with a patch-clamp amplifier (CEZ-2400; Nihon Kohden) and were digitized with a PowerLab digitizer (AD Instruments). Ringer's solution was used for the extracellular solution. The electrode solution contained 140 mM KCl, 10 mM HEPES, 5 mM EGTA-2K, and 10 mM D-glucose (pH 7.4). The data were low-pass filtered at 2 kHz and were sampled at 20 kHz. Ligands dissolved in Ringer's solution were applied at least twice with a self-made pressure-ejection system and via a two-barreled glass capillary.

B1: adiponectin: recombinant murine full-length adiponectin, internal ligand of adiponectin receptor 1 (protein, UniProt Q60994 1-247, looked up)
chain: MLLLQALLFLLILPSHAEDDVTTTEELAPALVPPPKGTCAGWMAGIPGHPGHNGTPGRDGRDGTPGEKGEKGDAGLLGPKGETGDVGMTGAEGPRGFPGTPGRKGEPGEAAYVYRSAFSVGLETRVTVPNVPIRFTKIFYNQQNHYDGSTGKFYCNIPGLYYFSYHITVYMKDVKVSLFKKDKAVLFTYDQYQEKNVDQASGSVLLHLEVGDQVWLQVYGDGDHNGLYADNVNDSTFTGFLLYHDTN
modifications: full-length
Which plasma adiponectin levels [1] does the source give for B1 here?
Its plasma adiponectin levels is “approximately 30 μg/ml”.

And the “expression levels of Ppargc1a in muscle” value (PGC-1α (Ppargc1a))?
Its value is “increased”.

What about the PGC-1α acetylation (PGC-1α) of the same molecule?
Its PGC-1α acetylation is “decreased”.

What about the “phosphorylation of CaMKI in skeletal muscle in vivo” value (CaMKI) of the same molecule?
The value was “significantly increased”.

What about the “dose dependence of calcium response” value (AdipoR1 [2]) of the same molecule?
Its value is “dose-dependent responses”.

And the “intracellular calcium ion concentration (fura-2-based fluorescent imaging)” value (AdipoR1 [2]; adiponectin 30 μg/ml, 1 min)?
Its value is “increased”.

What about the “whole-cell inward current responses” value (AdipoR1 [3]) of the same molecule?
The value was “observed”.
